The results in this text go back to patent publication US20130266574A1 (Regeneron, published 2013).

Broadly, the Kd is the free concentration of one partner at which half of the binding sites on the other are occupied at equilibrium, for simple one-to-one binding. As usually defined, the koff is a measure of how fast the partners let go of each other. As a reminder, the kon is the second-order rate constant of association.

For assay [1], the target named is T1, amino acid residues 26-148 of human ANGPTL4 fused in-line to mouse IgG2a (hANGPTL4-mFc) (human).
T1 construct: contains the N-terminal coiled-coil region
T1 chain: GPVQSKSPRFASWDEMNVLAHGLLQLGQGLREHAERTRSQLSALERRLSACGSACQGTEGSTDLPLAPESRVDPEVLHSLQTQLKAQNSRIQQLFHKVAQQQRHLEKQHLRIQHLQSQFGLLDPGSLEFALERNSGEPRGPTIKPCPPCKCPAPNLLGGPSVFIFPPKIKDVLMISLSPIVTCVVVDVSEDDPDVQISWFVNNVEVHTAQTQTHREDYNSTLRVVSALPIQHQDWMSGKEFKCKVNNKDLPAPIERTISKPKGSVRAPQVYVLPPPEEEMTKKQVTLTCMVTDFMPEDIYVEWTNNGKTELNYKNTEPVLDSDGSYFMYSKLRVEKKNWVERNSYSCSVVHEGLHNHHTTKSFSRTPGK
The experiment in a line: SPR (Biacore), 25° C., pH 7.2, antigen captured by anti-mFc. As for the experimental part:
(§1) Kinetic analysis was performed to measure kₐ and kd, and KD values and half-life of antigen/antibody complex dissociation were calculated. The results are shown in Table 4 (H1H268P) and Table 5 (H1H284P).
For orientation: SPR reads the build-up and loss of mass on a sensor chip optically.

In assay [2] the target is T2, cynomolgus monkey ANGPTL4 N-terminal region (amino acid residues 1-130 of SEQ ID NO:490) with a C-terminal … (cynomolgus monkey (Macaca fascicularis), UniProt Q9BY76 26-130 (human entry)).
T2 construct: also called MfANGPTL4(1-130)-His
T2 chain: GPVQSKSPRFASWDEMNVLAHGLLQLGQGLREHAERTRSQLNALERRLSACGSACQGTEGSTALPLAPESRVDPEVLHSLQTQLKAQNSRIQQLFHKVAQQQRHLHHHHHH
The experiment in a line: SPR (Biacore), 25° C., pH 5.75, antigen amino-coupled 1,028 RU. The method, then: as §1

The target of assay [3] is T1, amino acid residues 26-148 of human …. The experiment in a line: cell-based or functional assay.
For assay [4], the target named is T3, full-length hANGPTL4 (amino acid residues 26-406 of SEQ ID NO:476) with a C-terminal hexa-histidine tag (human, UniProt Q9BY76 26-406).
T3 sequence: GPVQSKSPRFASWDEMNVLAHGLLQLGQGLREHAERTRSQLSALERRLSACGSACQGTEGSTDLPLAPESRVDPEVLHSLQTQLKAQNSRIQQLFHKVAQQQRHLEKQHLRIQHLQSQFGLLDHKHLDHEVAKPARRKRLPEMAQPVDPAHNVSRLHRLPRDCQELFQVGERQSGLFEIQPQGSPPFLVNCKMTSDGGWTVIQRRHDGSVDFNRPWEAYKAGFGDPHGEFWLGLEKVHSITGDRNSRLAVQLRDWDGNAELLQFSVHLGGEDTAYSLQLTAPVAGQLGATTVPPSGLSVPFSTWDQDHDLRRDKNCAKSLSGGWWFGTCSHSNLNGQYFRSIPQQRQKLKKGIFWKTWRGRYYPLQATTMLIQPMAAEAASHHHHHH
The experiment in a line: cell-based or functional assay.

Assay [5] addresses T2, cynomolgus monkey ANGPTL4 N-terminal …. Description: SPR (Biacore), 25° C., pH 7.2, antigen amino-coupled 1,028 RU. As for the experimental part:
as §1

Assay [6] has as its target T3, full-length hANGPTL4 (amino acid …). The experiment in a line: SPR (Biacore), 25° C., pH 7.2, antigen amino-coupled 450 RU. As for the experimental part: as §1
For assay [7], the target named is T1, amino acid residues 26-148 of human …. The experiment in a line: cell-based or functional assay.
The target of assay [8] is T3, full-length hANGPTL4 (amino acid …). Description: cell-based or functional assay. This is another data set of the same source.
Assay [9] deals with T1, amino acid residues 26-148 of human …. Description: SPR (Biacore T100), hANGPTL4-mFc captured by anti-mouse IgG, antibody injected, 37° C. As for the experimental part:
Antigen-antibody binding and dissociation were monitored in real time at 25° C. and 37° C. Kinetic analysis was performed to calculate KD and half-life of antigen/antibody complex dissociation.

For assay [10], the target named is T2, cynomolgus monkey ANGPTL4 N-terminal …. The experiment in a line: SPR (Biacore), 25° C., pH 5.75, antigen amino-coupled 1,028 RU; Full mAb, not Fab; pH 5.75. The method, then: as §1

B1: H1H268P (antibody, V domains shown)
VH: QVQLQESGAGLLKPSETLSLTCTVYGGSFSIHHWTWIRHPPGKGLEWIGEINHRGSTNYNPSLKSRVTISIDTSKNQFSLKLSAVTAADTAVYYCARGLRFLDWLSSYFDYWGQGTLVTVSS
VL: DIQMTQSPSSLSASVGDRVTITCRASQGISDYLAWYQQKPGKVPNLLIYAASALQSGVPSRFSGSGSGTDFTLTISSLQPEDVATYYCQNYNTAPLTFGGGTKVEIK
notes: also called entire H1H268 mAb; Full mAb
Turning to B1, the Kd in [1] was 629 pM; in assay [5], 122 pM; in assay [6], 408 pM; in assay [9] it was 389 pM; in assay [10], 77.2 pM. Moreover, the koff in assay [1] was 9.59e-05 s⁻¹; in assay [5], 4.76e-05 s⁻¹; in assay [6], 0.0002 s⁻¹; in [10], 8.24e-05 s⁻¹. Besides, the kon in assay [1] turned out to be 153000 M⁻¹ s⁻¹; in [5], 392000 M⁻¹ s⁻¹; in assay [6], 489000 M⁻¹ s⁻¹; in assay [10], 1.07e+06 M⁻¹ s⁻¹. In addition, the t1/2 in assay [1] worked out at 2 h; in assay [2], 2.33 h; in [5], 4.05 h; in [6], 0.967 h; in assay [9] it was 0.95 h. Further, the “% Inhibition of hANGPTL4 Activity (LPL lipase test), hANGPTL4-mFc (2 nM)” value in [3] came to 76%. Moreover, in assay [4], the “% Inhibition of hANGPTL4 Activity (LPL lipase test), hANGPTL4-His (10 nM)” value worked out at 80%. Besides, the “IC50 (nM) in the LPL inhibition assay, constant ANGPTL4 2 nM” value in assay [7] was determined as 0.67 nM. In assay [8], the “IC50 (nM) in the LPL inhibition assay, constant ANGPTL4 10 nM” value is 0.2 nM.

B2: H1H284P (antibody, V domains shown)
VH: QVQLVESGGGVVQPGRSLRLSCAASGFTFSSYGMHWVRQAPGKGLEWMAVISFDGGNKNNADSVKGRFTISRDNSKNTLYLQMNSLRAEDTAVYYCAKEGDRSGHPYFYYYGLDVWGQGTTVTVS
VL: DIQLTQSPSFLSASVGDRVTITCWASQGISSYLAWYQQKPGKAPKLLIYAASTLQSGVPSRFSGSGSETEFTLTISSLQPEDFATYYCQQLHSYPLTFGGGTKVEIK
notes: also called entire H1H284 mAb; Full mAb
Turning to B2, the Kd turned out to be 196 pM in assay [1]; 125 pM in assay [5]; 105 pM in assay [6]; 349 pM in assay [9]; 54.3 pM in [10]. Further, the koff in assay [1] was 5.36e-05 s⁻¹; in assay [2], 8.42e-05 s⁻¹; in assay [5], 5.83e-05 s⁻¹; in [6], 8.85e-05 s⁻¹. For the same molecule, the kon in [1] stood at 274000 M⁻¹ s⁻¹; in [2], 1.55e+06 M⁻¹ s⁻¹; in assay [5], 467000 M⁻¹ s⁻¹; in assay [6], 850000 M⁻¹ s⁻¹. Moreover, the t1/2 in assay [1] was found to be 3.6 h; in assay [2] it was 2.28 h; in [5], 3.3 h; in assay [6], 2.17 h; in assay [9], 1.35 h. Also, in [3], the “% Inhibition of hANGPTL4 Activity (LPL lipase test), hANGPTL4-mFc (2 nM)” value is 82%. For the same molecule, the “% Inhibition of hANGPTL4 Activity (LPL lipase test), hANGPTL4-His (10 nM)” value in [4] was 90%. Moreover, in assay [7], the “IC50 (nM) in the LPL inhibition assay, constant ANGPTL4 2 nM” value is 0.33 nM. For the same molecule, the “IC50 (nM) in the LPL inhibition assay, constant ANGPTL4 10 nM” value in assay [8] was 0.42 nM.
